From patent EP4725969A1 (Latticon (Suzhou) Biopharmaceuticals Co., Ltd., dated 2024)
Changes are numbered by the printed parent chain.

B1: 2126-Hu-H30 (antibody, IgG1, name in Kabat numbering, V domains shown)
VH: QVQLVQSGSELKKPGASVKVSCKASGYTFTDYSMHWVRQAPGQGLEWMGWINTETGNPTYADDFKGRFVFSLDTSVSTAYLQISSLKAEDTAVYFCVRVGRYDYAMDYWGQGTTVTVSS
VL: DIQMTQSPSSLSASVGDRVTITCKASQDVYTAVAWYQQKPGKAPKLLINSASYRYTGVPSRFSGSGSGTDFTLTISSLQPEDFATYYCQQHYSTPPTFGGGTKVEIK
notes: IgG1/Cκ
B2: 2126-Hu-H59 (antibody, IgG1, V domains shown)
VH: B1 VH with N57E, D103S
VL: B1 VL
notes: IgG1/Cκ
B3: 2126-Hu-H50 (antibody, IgG1, V domains shown)
VH: B1 VH with N57E, R101Y
VL: B1 VL
notes: IgG1/Cκ
B4: 2126-Hu-H56 (antibody, IgG1, name in Kabat numbering, V domains shown)
VH: B1 VH with N57E, D103E
VL: B1 VL
notes: IgG1/Cκ
B5: 2126-Hu-H43 (antibody, IgG1, V domains shown)
VH: B1 VH with N57E, V76T
VL: B1 VL
notes: IgG1/Cκ
B6: 2126-Hu-H44 (antibody, IgG1, V domains shown)
VH: B1 VH with N57E, I83L
VL: B1 VL
notes: IgG1/Cκ
B7: 2126-Hu-L03 (antibody, IgG1, V domains shown)
VH: B1 VH with N57E
VL: B1 VL with Y30S
notes: IgG1/Cκ
B8: 2126-Hu-L02 (antibody, IgG1, V domains shown)
VH: B1 VH with N57E
VL: B1 VL with K24R
notes: IgG1/Cκ
B9: 2126-Hu-H58 (antibody, IgG1, name in Kabat numbering, V domains shown)
VH: B1 VH with N57E, D103Q
VL: B1 VL
notes: IgG1/Cκ
B10: 2126-Hu-H36 (antibody, IgG1, V domains shown)
VH: B1 VH with N57E, V69T
VL: B1 VL
notes: IgG1/Cκ
B11: 2126-Hu-H39 (antibody, IgG1, V domains shown)
VH: B1 VH with N57E, L72V
VL: B1 VL
notes: IgG1/Cκ
B12: 2126-Hu-H34 (antibody, IgG1, V domains shown)
VH: B1 VH with N57E, D63N
VL: B1 VL
notes: IgG1/Cκ
B13: 2126-Hu-H52 (antibody, IgG1, name in Kabat numbering, V domains shown)
VH: B1 VH with N57E, Y102S
VL: B1 VL
notes: IgG1/Cκ
B14: 2126-Hu-H40 (antibody, IgG1, V domains shown)
VH: B1 VH with N57E, L72R
VL: B1 VL
notes: IgG1/Cκ
B15: 2126-Hu-L05 (antibody, IgG1, V domains shown)
VH: B1 VH with N57E
VL: B1 VL with N49Y
notes: IgG1/Cκ
B16: 2126-Hu-H38 (antibody, IgG1, V domains shown)
VH: B1 VH with N57E, F70I
VL: B1 VL
notes: IgG1/Cκ
B17: 2126-Hu-H42 (antibody, IgG1, V domains shown)
VH: B1 VH with N57E, V76K
VL: B1 VL
notes: IgG1/Cκ
B18: 2126-Hu-H53 (antibody, IgG1, name in Kabat numbering, V domains shown)
VH: B1 VH with N57E, Y102N
VL: B1 VL
notes: IgG1/Cκ
B19: 2126-Hu-H31 (antibody, IgG1, V domains shown)
VH: B1 VH with N57D
VL: B1 VL
notes: IgG1/Cκ
B20: 2126-Hu-L04 (antibody, IgG1, V domains shown)
VH: B1 VH with N57E
VL: B1 VL with A32Y
notes: IgG1/Cκ
B21: 2126-Hu-L08 (antibody, IgG1, V domains shown)
VH: B1 VH with N57E
VL: B1 VL with Y53E
notes: IgG1/Cκ
B22: 2126-Hu-L07 (antibody, IgG1, V domains shown)
VH: B1 VH with N57E
VL: B1 VL with Y53D
notes: IgG1/Cκ
B23: 2126-Hu-H46 (antibody, IgG1, V domains shown)
VH: B1 VH with N57E, F95Y
VL: B1 VL
notes: IgG1/Cκ
B24: 2126-Hu-H61 (antibody, IgG1, V domains shown)
VH: B1 VH with N57E, M106F
VL: B1 VL
notes: IgG1/Cκ
B25: 2126-Hu-H45 (antibody, IgG1, V domains shown)
VH: B1 VH with N57E, I83M
VL: B1 VL
notes: IgG1/Cκ
B26: 2126-Hu-H51 (antibody, IgG1, name in Kabat numbering, V domains shown)
VH: B1 VH with N57E, Y102F
VL: B1 VL
notes: IgG1/Cκ
B27: 2126-Hu-H35 (antibody, IgG1, V domains shown)
VH: B1 VH with N57E, F64V
VL: B1 VL
notes: IgG1/Cκ
B28: 2126-Hu-H33 (antibody, IgG1, V domains shown)
VH: B1 VH with N57E, D63K
VL: B1 VL
notes: IgG1/Cκ
B29: 2126-Hu-H47 (antibody, IgG1, name in Kabat numbering, V domains shown)
VH: B1 VH with N57E, R101F
VL: B1 VL
notes: IgG1/Cκ
B30: 2126-Hu-H60 (antibody, IgG1, name in Kabat numbering, V domains shown)
VH: B1 VH with N57E, D103Y
VL: B1 VL
notes: IgG1/Cκ
B31: 2126-Hu-L06 (antibody, IgG1, V domains shown)
VH: B1 VH with N57E
VL: B1 VL with S50A
notes: IgG1/Cκ
B32: 2126-Hu-H48 (antibody, IgG1, name in Kabat numbering, V domains shown)
VH: B1 VH with N57E, R101K
VL: B1 VL
notes: IgG1/Cκ
B33: 2126-Hu-H49 (antibody, IgG1, name in Kabat numbering, V domains shown)
VH: B1 VH with N57E, R101N
VL: B1 VL
notes: IgG1/Cκ
B34: 2126-Hu-H57 (antibody, IgG1, name in Kabat numbering, V domains shown)
VH: B1 VH with N57E, D103G
VL: B1 VL
notes: IgG1/Cκ
B35: 2126-Hu-H54 (antibody, IgG1, V domains shown)
VH: B1 VH with N57E, Y102G
VL: B1 VL
notes: IgG1/Cκ
B36: 2126-Hu-L01 (antibody, IgG1, V domains shown)
VH: B1 VH with N57E
VL: B1 VL with D28S
notes: IgG1/Cκ
B37: 2126-Hu-H32 (antibody, IgG1, V domains shown)
VH: B1 VH with N57S
VL: B1 VL
notes: IgG1/Cκ
B38: 2126-Hu-H37 (antibody, IgG1, V domains shown)
VH: B1 VH with N57E, V69S
VL: B1 VL
notes: IgG1/Cκ
B39: 2126-Hu-H55 (antibody, IgG1, name in Kabat numbering, V domains shown)
VH: B1 VH with N57E, D103A
VL: B1 VL
notes: IgG1/Cκ

The binders below were run against T1, recombinant human HER2 extracellular domain protein (human, UniProt P04626 23-652) (assay: BLI, Protein A capture).
T1 construct: range 23-652; Range is printed for the immunogen/panning protein; also called ErbB2; recombinant HER2 protein

Row | Kd [nM] | koff [s⁻¹] | kon [M⁻¹ s⁻¹] | Binder
1 | 13.1 | 0.0015 | 115000 | B1
2 | 25.3 | 0.00287 | 113000 | B2
3 | 8 | 0.000902 | 113000 | B3
4 | 36.2 | 0.00476 | 131000 | B4
5 | 7.2 |  | 107000 | B5
6 | 5.3 | 0.000562 | 106000 | B6
7 | 39.5 | 0.00186 | 47100 | B7
8 | 5.58 | 0.000551 | 98700 | B8
9 | 26.3 | 0.00409 | 155000 | B9
10 | 5.3 | 0.000558 | 105000 | B10
11 | 4.87 | 0.000509 | 105000 | B11
12 | 4.31 | 0.000454 | 105000 | B12
13 | 19.3 | 0.00292 | 152000 | B13
14 | 1.92 | 0.0002 | 104000 | B14
15 | 13.4 | 0.00139 | 104000 | B15
16 | 8.4 | 0.000874 | 104000 | B16
17 | 5.11 | 0.000546 | 107000 | B17
18 | 46.9 | 0.00475 | 101000 | B18
19 | 8.81 | 0.000942 | 107000 | B19
20 | 13.9 | 0.000611 | 43900 | B20

Row | Kd [nM] | koff [s⁻¹] | kon [M⁻¹ s⁻¹] | Binder
21 | 6.57 | 0.00062 | 94300 | B21
22 | 6.46 | 0.00061 | 94300 | B22
23 | 5.7 | 0.000597 | 105000 | B23
24 | 22 | 0.00201 | 91400 | B24
25 | 5.76 | 0.000598 | 104000 | B25
26 | 23.8 | 0.00244 | 103000 | B26
27 | 5.87 | 0.000603 | 103000 | B27
28 | 2.83 | 0.00031 | 109000 | B28
29 | 17.8 | 0.00362 | 204000 | B29
30 | 23.8 | 0.00361 | 152000 | B30
31 | 6.63 | 0.000659 | 99400 | B31
32 | 34.1 | 0.00392 | 115000 | B32
33 | 35.9 | 0.00533 | 149000 | B33
34 | 14.5 | 0.00217 | 150000 | B34
35 | 7.96 | 0.000936 | 118000 | B35
36 | 17.5 | 0.00195 | 112000 | B36
37 | 8.96 | 0.000998 | 111000 | B37
38 | 5.31 | 0.000545 | 103000 | B38
39 | 33.7 | 0.00452 | 134000 | B39
